Substrate: CC(C)=CCC/C(C)=C/CC/C(C)=C/CC/C(C)=C/COP(=O)(O)OP(=O)(O)O
Experiment: purified protein
Format: biochemical, Taxus chinensis
Details: 1 mM MgCl2, 25 mM HEPES pH 8.5, 10% glycerol, 5 mM DTT, 32 °C, 30 min, GGPP spiked with [1-3H]-GGPP

Row | Protein | Km | kcat
1 | TS1 (Taxus chinensis) (protein, 60-residue N-terminal (plastid transit) truncation, His-tagged, pET28b, E. coli, purified) MSSSTGTSKVVSETSSTIVDDIPRLSANYHGDLWHHNVIQTLETPFRESSTYQERADELVVKIKDMFNALGDGDISPSAYDTAWVARVATISSDGSEKPRFPQALNWVLNNQLQDGSWGIESHFSLCDRLLNTINSVIALSVWKTGHSQVEQGTEFIAENLRLLNEEDELSPDFEIIFPALLQKAKSLGINLPYDLPFIKYLSTTREARLTDVSAAADNIPANMLNALEGLEEVIDWKKIMRFQSKDGSFLSSPASTACVLMNTGDEKCFTFLNNLLDKFGGCVPCMYSIDLLERLSLVDNIEHLGIGRHFKQEIKVALDYVYRHWSERGIGWGRDSLVPDLNTTALGLRTLRTHGYDVSSDVLNNFKDENGRFFSSAGQTHVELRSVVNLFRASDLAFPDEGAMDDARKFAEPYLRDALATKISTNTKLFKEIEYVVEYPWHMSIPRLEARSYIDSYDDDYVWERKTLYRMPSLSNSKCLELAKLDFNIVQSLHQEELKLLTRWWKESGMADINFTRHRVAEVYFSSATFEPEYSATRIAFTKIGCLQVLFDDMADIFATLDELKSFTEGVKRWDTSLLHEIPECMQTCFKVWFKLMEEVNNDVVKVQGRDMLAHIRKPWELYFNCYVQEREWLDAGYIPTFEEYLKTYAISVGLGPCTLQPILLMGELVKDDVVEKVHYPSNMFELVSLSWRLTNDTKTYQAEKARGQQASGIACYMKDNPGATEEDAIKHICRVVDRALKEASFEYFKPSNDIPMGCKSFIFNLRLCVQIFYKFIDGYGIANEEIKDYIRKVYIDPIQV | 5.5 ± 1.6 µM | 1705 s⁻¹
2 | TS2 (Taxus chinensis) (protein, 60-residue N-terminal (plastid transit) truncation, His-tagged, pET28b, E. coli, purified) SGSPTKLATENANAVAESNLIPRLSANYHGDLWHHGVIQTLQTPYQESSSYQERAEELIVKIKDMFKAVEEGAISPSAYDTAWVARVPDGSEKPRFPQALNWLLHNQLQDGSWGLESHFMLSDRLLSTLNSVISLLVWKTGQQQVEQGTLFITENLKLLEGEDELPPDFEIIFPALLQKAKALGMSLPDHDLPFIKSLSVAREARLASYTDNNIPASMLNALEGLEEVIDWDKIMRFQMPCLYSIDLLERLSLVDNIEHLGIGRHFKQEIKVALDYVYRYWSERGIGLGRDSLIPDLNTTALGLRTLRAHGYNVSSEVLNNFKDENGRFFSSLGQTHVELRSMVNLLRASDLAFPDEPLMDDAKIFAEAYLRDALATRISTNTKLFKEIDYAVEYPWHMSIPRLEARSYIDVYDDDYTWQNKTLYRMSNLSNAYCLELAKLDFNIVQSLHQEELKLLTRWWKESGMADINFTRHRVAEVYFSSATFEPEYSSTRIAFTKIGCLQVLFDDMADIFATLDELRDFTEGVKRWDTSLIHKLPDCMQTCFRVWFNLMEEVNNDVSNVQGRDMLNHIRKPWELYFNCYVQEREWLDAGYIPTLEEYLKTYSISVGLGPCTLQPILLMGDIVKDDVVEKVHYPSNLFELVSLSWRLTNDTKTYQAEKARGQQASGIACYMKDNPGSTEEDAIKYICGVVDRALKEACFEYFKPADDVPMSCKSFIFNLRLCVQIFYKFIDGYGIANEEIKDYIRKVYIEPIQV | 8.6 ± 1.5 µM | 3280 s⁻¹

Reference: paper PMC8367818, “The Taxus genome provides insights into paclitaxel biosynthesis” (Nature Plants, 2021)
